In patent US7629169B2, “Methods for the production of platelet-derived growth factor-responsive neural precursor cells” (Stem Cell Therapeutics Corp., priority 2004, dated 2009):

B1: NT-3: neurotrophin-3 (protein, UniProt P20783 139-257, looked up)
Neurotrophin-3: YAEHKSHRGEYSVCDSESLWVTDKSSAIDIRGHQVTVLGEIKTGNSPVKQYFYETRCKEARPVKNGCRGIDDKHWNSQCKTSQTYVRALTSENNKLVGWRWIRIDTSCVCALSRKIGRT
B2: CNTF: ciliary neurotrophic factor (protein, UniProt P26441 1-200, looked up)
Ciliary neurotrophic factor: MAFTEHSPLTPHRRDLCSRSIWLARKIRSDLTALTESYVKHQGLNKNINLDSADGMPVASTDQWSELTEAERLQENLQAYRTFHVLLARLLEDQQVHFTPTEGDFHQAIHTLLLQVAAFAYQIEELMILLEYKIPRNEADGMPINVGDGGLFEKKLWGLKVLQELSQWTVRSIHDLRFISSHQTGIPARGSHYIANNKKM
B3: BDNF: brain-derived neurotrophic factor (protein, UniProt P23560 19-247, looked up)
Neurotrophic factor BDNF …: APMKEANIRGQGGLAYPGVRTHGTLESVNGPKAGSRGLTSLADTFEHVIEELLDEDQKVRPNEENNKDADLYTSRVMLSSQVPLEPPLLFLLEEYKNYLDAANMSMRVRRHSDPARRGELSVCDSISEWVTAADKKTAVDMSGGTVTVLEKVPVSKGQLKQYFYETKCNPMGYTKEGCRGIDKRHWNSQCRTTQSYVRALTMDSKKRIGWRFIRIDTSCVCTLTIKRGR

Experiments:
[1] = tested on: PDGFRα-labeled cells (PRPs); experiment: PDGFRα and Tunel staining of dissociated primary cells, 24 hours; type: cell-based
Method: Dissociated primary cells were cultured in 24-well plates with or without NT-3 for 24 hours, stained for PDGFRα and Tunel, and the number of labeled cells counted.

[2] = tested on: PDGF-responsive neural precursors (PRPs) from dissociated E14 MGE/LGE; experiment: Primary neurosphere generation from dissociated E14 ganglionic eminences; type: cell-based, mouse; settings: for neurosphere size / number of neurospheres produced: neurotrophin in the presence of PDGF
Method: Cell culture. The culture medium (MHM) was composed of DMEM/F-12 (1:1) including HEPES buffer (5 mM), glucose (0.6%), sodium bicarbonate (3 mM), glutamine (2 mM), insulin (25 μg/ml), transferrin (100 μg/ml), progesterone (20 nM), putrescine (10 μM), and sodium selenite (30 nM; all from Sigma, St. Louis, Mo., except glutamine from Invitrogen, Carlsbad, Calif.). The lateral, medial, or both ganglionic eminences (LGE, MGE or both) were removed from Embryonic Day 14 (E14) mouse embryos and mechanically dissociated with a fire-polished Pasteur pipette in MHM. Cells were plated at a density of […] unless otherwise indicated.
For neurosphere generation, PDGF-AA (100 ng/ml; Peprotech, Rocky Hill, N.J.), PDGF-BB (100 ng/ml; Peprotech), EGF (20 ng/ml; Peprotech), FGF2 (20 ng/ml; R&D [Minneapolis, Minn.])+heparan sulfate (2 μg/ml; HS; R&D), SHH (2 ug/ml; R&D), cyclopamine (5 μM; Toronto Research Chemicals, North York, Ontario), and/or DMSO (0.1%; carrier) was added to the MHM. MHM used to generate neurospheres also contained 2% B27 (Invitrogen).
[…] is one of the earliest markers of OLPs, and signaling by PDGF-AA is required for the generation of most oligodendrocytes (Fruttiger et al., Development 126:457 (1999)). Increasing concentrations of PDGF-AA were used to determine whether stimulation of dissociated E14 medial and lateral ganglionic eminences. (MGE and LGE, respectively) results in generation of neurospheres. The neurosphere assay was used because manipulation of primary cells is minimal compared to the immunopanning procedures used to isolate O-2A progenitors.
The effect of brain-derived neurotrophic factor (BDNF), neurotrophin-3 (NT-3), and nerve growth factor (NGF) on PRPs was determined. Cells were cultured as previously reported (Chojnacki et al., J Neurosci 24(48):10888 2004) in the presence of various combinations of PDGF, brain-derived neurotrophic factor (BDNF), NT-3, nerve growth factor (NGF), and the effects on neurosphere generation characterized. MHM is the defined medium used in cultures without growth factor.

[3] = tested on: PDGF-generated neurospheres; experiment: Differentiation of primary PDGF-AA-generated neurospheres, immunocytochemistry; type: cell-based, mouse

Molecule	Tunel and PDGFRα co-labeled cells ([1]; with or without NT-3, 24 hours)	PDGFRα-labeled cells ([1]; with vs without NT-3, 24 hours)	generation of neurospheres by timing of treatment ([2]; initial 24 hour NT-3 vs exposure after first 24 hours)	neurosphere size [2]	number of neurospheres produced [2]	GFAP-immunoreactive cells (astrocytes) ([3]; 2 DIV differentiation)	OLIG2 / O4 expression ([3]; 6 DIV PDGF-generated neurospheres differentiated 2 DIV)
B1	no Tunel and PDGFRα co-labeled cells were observed	more PDGFRα-labeled cells	more effective at promoting the generation of neurospheres than continued exposure to NT-3 after the first 24 hours	promote the generation of larger neurospheres	more neurospheres are produced		
B2						did not induce GFAP expression	no effect on OLIG2 or O4 expression
B3				promote the generation of larger neurospheres	more neurospheres are produced		
